Experiments:
Experiment in all cases: western blot of recombinant protein
[1] = molecular target: T1, recombinant human CNAα wild type (unphosphorylated) (human, UniProt Q08209 1-521, limits assumed)
T1 construct: Co-expressed with the CNB1 subunit in E. coli and co-purified; run on denaturing gels for western blot; also called wild-type CNAα; WT CNAα
Protocol: (§1) Levels of total CNAα were used as a loading control and were assessed after stripping of the membranes and incubation with anti-CNAα rabbit by chemiluminescence (bottom panel).

[2] = molecular target: T2, recombinant human CNAα S469E phosphomimetic mutant (human, UniProt Q08209 1-521, limits assumed)
T2 construct: Co-expressed with CNB1 in E. coli and co-purified; also called S469E CNAα; phosphomimic mutant S469E
Protocol: as §1

[3] = molecular target: recombinant CNAα double mutant S462E/S469E (human, UniProt Q08209 1-521, limits assumed)
Protocol: as §1

B1: monoclonal mouse anti-pS469 CNAα antibody (antibody, V domains shown)
VH: EVQLQQSGAELVRPGASVKLSCTASDFNIKDTYIHWLKQRPEQGLEWIGRIDPANSNPKYDPNFQGKATITTDTSSNTAYLQLSSLTSDDTAVYYCTRRDYYGSGSWFAYWGQGTLVTVSS
VL: DIVMTQAAPSVPVTPGESVSISCRSSKSLLHSNGNTYLYWFLQRPGQSPQLLIYRMSNLASGVPDRFSGSGSGTAFTLRINRVEAEDVGVYYCMQHLEYPLTFGAGTKLELK
notes: 7 and 9 are used; Mouse monoclonal; also called monoclonal mouse anti-S469 phosphospecific antibody; monoclonal murine anti-S469 CNAα phosphospecific antibody
- binding result [1]: no binding
- binding result [2]: binds
- binding result [3]: binds
